Test results from PMC9764456 (Cell reports, 2022).

Molecular target: the molecule itself
Assay: negative stain electron microscopy

B1: peroxiredoxin PRDX2 (enzyme, human (endogenous in RBCs), UniProt P32119 1-198, looked up)
chain: MASGNARIGKPAPDFKATAVVDGAFKEVKLSDYKGKYVVLFFYPLDFTFVCPTEIIAFSNRAEDFRKLGCEVLGVSVDSQFTHLAWINTPRKEGGLGPLNIPLLADVTRRLSEDYGVLKTDEGIAYRGLFIIDGKGVLRQITVNDLPVGRSVDEALRLVQAFQYTDEHGEVCPAGWKPGSDTIKPNVDDSKEYFSKHN
Q: How did the “stoichiometry N” value turn out when B1 was run?
A: Its value is 10.
